In the supplement of paper PMC9170038:

Tested on: MS2 coat protein
Assay: apparent KD of MS2 coat protein; designed switch direction (-1 OFF switch, 1 ON switch): -1; higher = weaker reporter binding
How it was run: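 The buffer was Tris-HCl pH 7.5 with KCl, MgCl2, BSA, DTT, tRNA and Tween-20. In it, SNAP-549-labelled MS2 coat protein was titrated in doubling steps from 0.7 or 1.5 nM to 3 µM over chip-bound RNA switches transcribed by stalled E. coli RNA polymerase on Illumina chips. Apparent KD is the per-design median over clusters of curve fits to normalised fluorescence.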

[1] = input ligand: microRNA oligo, concentration not stated
[2] = Eterna round: R95, input ligand: FMN 200 uM
[3] = Eterna round: R95, input ligand: microRNA oligo, concentration not stated
[4] = Eterna round: R95, input ligand: none

Sequence	apparent KD of MS2 coat protein (input ligand: FMN 200 uM)	apparent KD of MS2 coat protein (input ligand: none)	apparent KD of MS2 coat protein [1]	apparent KD of MS2 coat protein [2]	apparent KD of MS2 coat protein [3]	apparent KD of MS2 coat protein [4]
UGUGUGUCAGGAUAUGUGUGUGUGUGUGAAAGCGCGCGCGCGCAGAAGGGACAUGAGGAUCACCCAUGUGCGCG [-35.3, -34.3 kcal, A 20%, 6bis-6] (Eterna round: R97, puzzle: Exclusion 4)	484 nM	220 nM	–	–	–	–
UGUUAGAUGGUAGGAUAUCCAUAUCGAGUGACCCUUUCAUAACAUGAGGAUCACCCAUGUCGGUGGGAGAAGGGCCGUAUGGUG [salish99_ExNG02_R04_031] (Eterna round: R96, puzzle: Exclusion NG 2)	18 nM	22.7 nM	15.8 nM	–	–	–
UGUUGUCGCGUAGGAUAUGAGGAUCACCCAUAUAAAGGAUAUGAAAAGAAGGUUCUGAGGAUUACCCAGAAGGACGGGACAACU [pwkr exNG2 2xF5 2xFMN.17] (Eterna round: R96, puzzle: Exclusion NG 2)	207 nM	48.7 nM	35 nM	–	–	–
UGUUGUUACGCAGGAUAUGAGGAUCACCCAUAGAAGGAUAACGAAAGUGAAGGUCUGAGGAUUACCCAGAAGGGCGGGUUAACA [pwkr exNG2 2xF5 2xFMN.2] (Eterna round: R96, puzzle: Exclusion NG 2)	294 nM	92 nM	74.2 nM	–	–	–
UGUUGUUACGCAGGAUAUUGUCAACAGGCAGUAGGAUAUCCGAAAGGAGAAGGACCGCCAACAGGCGAGAAGGGCGGGUUAACA [pwkr exNG2 2xF7 2xFMN.7] (Eterna round: R96, puzzle: Exclusion NG 2)	369 nM	323 nM	167 nM	–	–	–
UGUUGUUACGUAGGAUAUCCACCAACAGGUGGAAGGAUAUGGAAACAGAAGGUUCGCCAACAGGCGGAGAAGGACGGGUUAACA [pwkr exNG2 2xF7 2xFMN.22] (Eterna round: R96, puzzle: Exclusion NG 2)	42.5 nM	32.3 nM	11.5 nM	–	–	–
UUAAAUCAUGUAGGAUAUGCGUGGCGAAGCUAUGCAGAAGGACAUGAGGAUCACCCAUGUUCUAGCGUCUGCGUACAGAUGCUA [Mat - Exclusion NG 1 - Mod of JL - D76] (Eterna round: R96, puzzle: Exclusion NG 1)	359 nM	38.3 nM	26.9 nM	–	–	–
UUAAAUCAUGUAGGAUAUGCGUGGGAAAACUAUGCAGAAGGACAUGAGGAUCACCCAUGUGCUUCCGUCUGAGAACAGACGGUA [Mat - Exclusion NG 1 - Mod of JL - D15] (Eterna round: R96, puzzle: Exclusion NG 1)	226 nM	87.8 nM	76.1 nM	–	–	–
UUAAGUUCAGGAUAUGAUGAAUUAAACAUGAGGAUCACCCAUGUAGAUCCUGAAUUAACAUCAGAAGGGAAUAUUU [JL-ex5-4.52 Brourd mod] (Eterna round: R97, puzzle: Exclusion 5)	24.4 nM	13.5 nM	–	–	–	–
UUAAUAAUGUAAGGAUAUGCGUGGCGAAGCUAUGCAGAAGGUACAUGAGGAUCACCCAUGUGGUCCGUCUGCGUACAGAUGGAA [JL Eng1 1.08 mod] (Eterna round: R96, puzzle: Exclusion NG 1)	756 nM	365 nM	319 nM	–	–	–
UUAAUACAUGAGGAUCACCCAUGUCAGGAUAUCCGUAUUUCUUAUAUAUAUUUCUAUCGGAGAAGGGACACAUU [lam1] (Eterna round: R97, puzzle: Exclusion 1)	50.9 nM	45.4 nM	–	–	–	–
UUAAUGUCAGGAUAUGCUUAAUAUAUUUUAUUAUAAUAUAUACAUGAGGAUCACCCAUGUAGAAGGGACAUUAU [LRO-Excl2-04-Fireball XL5] (Eterna round: R97, puzzle: Exclusion 2)	26.4 nM	39.1 nM	–	–	–	–
UUAAUUAAUAAUUAAGAUCAUUACAUGAGGAUCACCCAUGUCGAGGAUAUCAGCUCGAUUAGAGCUGAGAAGGCGACAAAUUAU [ExNG3/13-B1] (Eterna round: R96, puzzle: Exclusion NG 3)	1060 nM	579 nM	644 nM	–	–	–
UUAAUUAGCAGACUAAUACCUCACAUGAGGAUCACCCAUGUGCAGGAUAUCAGCUCGUGUAGAGCUGAGAAGGGCACUGUCUGC [ExNG3/12-A3] (Eterna round: R96, puzzle: Exclusion NG 3)	17 nM	10.8 nM	10.2 nM	–	–	–
UUAAUUAGCAGACUAAUACCUCACAUGAGGAUCACCCAUGUGCAGGAUAUCAGCUCGUUUAGAGCUGAGAAGGGCACUGUCUGC [ExNG3/12-A2] (Eterna round: R96, puzzle: Exclusion NG 3)	17.9 nM	11.3 nM	8.72 nM	–	–	–
UUAAUUUAAGGGAUAGAUCAUUACAUGAGGAUCACCCAUGUUGAGGAUAUCAGCUCGAUUAGAGCUGAGAAGGCAACAAUAGGG [ExNG3/14-A1] (Eterna round: R96, puzzle: Exclusion NG 3)	46 nM	63.8 nM	47.1 nM	–	–	–
UUACAAUGUCGCUUACAAGCUUUUUGCUCGUCUUAUAUUACAUGAGGAUCACCCAUGUAGAUCAUGUGGCGUGACCU [JL ViennaUCT Maridi mod 9] (puzzle: Sensor v3, turn-off variant 2)	–	–	–	165 nM	23.3 nM	208 nM
UUACCAUGCCGCCUAAUAGCUUUUUGCUCGUCUUAUAUUACAUGAGGAUCACCCAUGUAGAUCAUGUGGCGUGACCU [JL ViennaUCT Maridi mod 2] (puzzle: Sensor v3, turn-off variant 2)	–	–	–	126 nM	39.6 nM	121 nM
UUACGGUAGAUCGUGGCUUUUUGCUCGUCUUGUGCUACAACAUGAGGAUCACCCAUGUAGAGGUGAUCUAUUGUAUU [Grok-var2-20 mod JAL] (puzzle: Sensor v3, turn-off variant 2)	–	–	–	51.9 nM	17.8 nM	74.5 nM
UUACUAUGCCGCCUAAUAGCUUUUUGCUCGUCUUAUAUUACAUGAGGAUCACCCAUGUAGAUCAUGUGGCGUGACCU [JL ViennaUCT Maridi mod 3] (puzzle: Sensor v3, turn-off variant 2)	–	–	–	216 nM	42 nM	206 nM
UUAGAUAGGUCAGGAUAUCGAUGAUUGAAUAGUAUGAUUUACAUGAGGAUCACCCAUGUUUUGUACGAGAAGGGACGUUAGAUU [JR_ExcNG2_Sub020] (Eterna round: R96, puzzle: Exclusion NG 2)	26.9 nM	28.5 nM	22.6 nM	–	–	–
UUAGAUAGGUCAGGAUAUCGAUGAUUGAAUUGUAUGAUUUACAUGAGGAUCACCCAUGUUUUGUACGAGAAGGGACGUUAGAUU [JR_ExcNG2_Sub018] (Eterna round: R96, puzzle: Exclusion NG 2)	26.7 nM	37.2 nM	17.6 nM	–	–	–
UUAGCGCGAGGAUAUGCGGUUUGUGCUUUGGGCCCUGGCGUACAUGAGGAUCACCCAUGUAGAAGGCGUGUUGU [Apr-15 SS2-50] (puzzle: Exclusion 2)	–	–	–	–	20.7 nM	–
